Test results taken from the RNAGym collection of RNA variant scans (doi:10.1093/molbev/msab373).

B1: Azoarcus group I ribozyme (parent)
chain: GUGCCUUGCGCCGGGAAACCACGCAAGGGAUGGUGUCAAAUUCGGCGAAACCUAAGCGCCCGCCCGGGCGUAUGGCAACGCCGAGCCAAGCUUCGGCGCCUGCGCCGAUGAAGGUGUAGAGACUAGACGGCACCCACCUAAGGCAAACGCUAUGGUGAAGGCAUAGUCCAGGGAGUGGCGAAAGUCACACAAACCGG

Variants of: B1
Assay: reverse-splicing fitness (ratio to wild type); higher = more active; in vitro selection; Mg2+ level not given
Method in brief: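 An in vitro group I ribozyme library with randomized positions was T7-transcribed and gel-purified. In triplicate, 10 pmol RNA in EPPS pH 7.5 was reacted with 50 pmoles of a 30-nt RNA substrate for 1 h at 37 °C across several added MgCl2 levels (1–48 mM), then stopped with EDTA. Products were reverse transcribed from a substrate-complementary primer, PCR-amplified and sequenced (HiSeq 4000). Fitness is a variant's read proportion after selection over that before, normalised to wild type.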
C82G A120G A145G C150U C169U U176G showed a reverse-splicing fitness of 0.00473. C82G A120G A145G C150U C169U U176C gave a reverse-splicing fitness of 0.0187. With C82G A120G A145G C150U C169U U176A the reverse-splicing fitness was 0.0213. C82G A120G C169U U176G showed a reverse-splicing fitness of 0.00492. Variant C82G A120G C169U U176C has a reverse-splicing fitness of 0.024. With C82G A120G C169U U176A the reverse-splicing fitness was 0.0236. Variant C82G A120C C150G U176G has a reverse-splicing fitness of 0.00413. In the case of C82G A120C C150G U176C, the reverse-splicing fitness is reported as 0.0138. Work on C82G A120C C150G U176A yielded a reverse-splicing fitness of 0.00858. C82G A120G A145G C150G C169G U176G showed a reverse-splicing fitness of 0.00567. C82G A120G A145G C150G C169G U176A gave a reverse-splicing fitness of 0.0108. With C82G A120G A145G C150G C169G U176C the reverse-splicing fitness was 0.0129. With C82G A120G A145U C150U C169G U176C the reverse-splicing fitness was 0.0218. With C82G A120G A145U C150U C169G U176A the reverse-splicing fitness was 0.015. With C82G A120G A145U C150U C169G U176G the reverse-splicing fitness was 0.00476. Work on C82G A120U A145C C150A C169A U176A yielded a reverse-splicing fitness of 0.0017. Work on C82G A120U A145C C150A C169A U176C yielded a reverse-splicing fitness of 0.00208. For C82G A120U A145C C150A C169A U176G, the reverse-splicing fitness was 0.00157. C82G A120C C150G C169G U176C gave a reverse-splicing fitness of 0.00574. For C82G A120C C150G C169G U176G, the reverse-splicing fitness was 0.00538. Work on C82G A120G A145U C169A U176G yielded a reverse-splicing fitness of 0.00363. For C82G A120G A145U C169A U176C, the reverse-splicing fitness was 0.0199. In the case of C82G A120G A145U C169A U176A, the reverse-splicing fitness is reported as 0.0122. For C82G A120G C169U, the reverse-splicing fitness was 0.0237. C82G A120G C169A showed a reverse-splicing fitness of 0.0302. In the case of C82G A120G C169G, the reverse-splicing fitness is reported as 0.0529. Variant C82G A120G A145G C150A C169G U176A has a reverse-splicing fitness of 0.0188. Variant C82G A120G A145G C150A C169G U176C has a reverse-splicing fitness of 0.0296. C82G A120G A145G C150A C169G U176G gave a reverse-splicing fitness of 0.00507. In the case of C82G A120C C150U C169A U176A, the reverse-splicing fitness is reported as 0.0177. C82G A120C C150U C169A U176G gave a reverse-splicing fitness of 0.00618. Variant C82G A120C C150U C169A U176C has a reverse-splicing fitness of 0.0133. Work on C82G A120G A145G C169A yielded a reverse-splicing fitness of 0.0319. C82G A120G A145G C169U gave a reverse-splicing fitness of 0.0249. Variant C82G A120G A145G C169G has a reverse-splicing fitness of 0.0507. C82G A120G C150U C169A U176C gave a reverse-splicing fitness of 0.0189. C82G A120G C150U C169A U176A gave a reverse-splicing fitness of 0.0184. With C82G A120G C150U C169A U176G the reverse-splicing fitness was 0.00527. With C82G A120U A145C C150G C169A the reverse-splicing fitness was 0.00195. C82G A120U A145C C150G C169U gave a reverse-splicing fitness of 0.00302. C82G A120U A145C C150G C169G showed a reverse-splicing fitness of 0.00253. In the case of C82G A120C C150G C169U, the reverse-splicing fitness is reported as 0.0121. Work on C82G A120G A145C C150U C169U U176C yielded a reverse-splicing fitness of 0.0138. Work on C82G A120G A145C C150U C169U U176A yielded a reverse-splicing fitness of 0.0184. C82G A120G A145C C150U C169U U176G gave a reverse-splicing fitness of 0.00404. C82G A120G C150A U176G gave a reverse-splicing fitness of 0.0105. C82G A120G C150A U176A showed a reverse-splicing fitness of 0.0119. Work on C82G A120G C150A U176C yielded a reverse-splicing fitness of 0.0195. Work on C82G A120G A145G C150U C169G U176C yielded a reverse-splicing fitness of 0.0245. Work on C82G A120G A145G C150U C169G U176A yielded a reverse-splicing fitness of 0.0169. For C82G A120G A145G C150U C169G U176G, the reverse-splicing fitness was 0.00428. C82G A120G C150U C169A showed a reverse-splicing fitness of 0.0193. With C82G A120G C150U C169U the reverse-splicing fitness was 0.0164. C82G A120G C150U C169G showed a reverse-splicing fitness of 0.0318. C82G A120U A145C C150G U176C showed a reverse-splicing fitness of 0.00907. Variant C82G A120U A145C C150G U176A has a reverse-splicing fitness of 0.00741. In the case of C82G A120U A145C C150G U176G, the reverse-splicing fitness is reported as 0.00292. Work on C82G A120U A145C C150A U176C yielded a reverse-splicing fitness of 0.00532. For C82G A120U A145C C150A U176G, the reverse-splicing fitness was 0.00299. C82G A120U A145C C150A U176A gave a reverse-splicing fitness of 0.00467. C82G A120U A145C C150A C169G gave a reverse-splicing fitness of 0.00199. With C82G A120U A145C C150A C169U the reverse-splicing fitness was 0.00213. Work on C82G A120U A145C C150A C169A yielded a reverse-splicing fitness of 0.00159. C82G A120G A145G C169U U176C showed a reverse-splicing fitness of 0.0199. Work on C82G A120G A145G C169U U176A yielded a reverse-splicing fitness of 0.0208. In the case of C82G A120G A145G C169U U176G, the reverse-splicing fitness is reported as 0.00391. For C82G A120G A145C C150G C169A, the reverse-splicing fitness was 0.0102. Work on C82G A120G A145C C150G C169U yielded a reverse-splicing fitness of 0.00976. For C82G A120G A145C C150G C169G, the reverse-splicing fitness was 0.0108. Work on C82G A120C C150U U176G yielded a reverse-splicing fitness of 0.0136. In the case of C82G A120C C150U U176C, the reverse-splicing fitness is reported as 0.0574. Work on C82G A120C C150U U176A yielded a reverse-splicing fitness of 0.0429. With C82G A120G A145C C150G C169U U176G the reverse-splicing fitness was 0.00495. With C82G A120G A145C C150G C169U U176C the reverse-splicing fitness was 0.0125. In the case of C82G A120G A145C C150G C169U U176A, the reverse-splicing fitness is reported as 0.0154. Variant C82G A120G A145C C150A C169A U176A has a reverse-splicing fitness of 0.0119. Work on C82G A120G A145C C150A C169A U176C yielded a reverse-splicing fitness of 0.00516. C82G A120G A145C C150A C169A U176G gave a reverse-splicing fitness of 0.00483. C82G A120C C150U C169G U176A gave a reverse-splicing fitness of 0.0141. C82G A120C C150U C169G U176C gave a reverse-splicing fitness of 0.0162. Variant C82G A120C C150U C169G U176G has a reverse-splicing fitness of 0.0048. For C82G A120G A145U C150U C169U U176G, the reverse-splicing fitness was 0.00413. In the case of C82G A120G A145U C150U C169U U176C, the reverse-splicing fitness is reported as 0.0181.
